From US20230416356A1 (SCOUT BIO, published 2023) come the findings set out here.

Test [1] has as its target T1, canine IL-31 alanine-scanning peptide (residues 18-42 of SEQ ID NO:1) Y32A (canine).
T1 construct: See note of m18; also called Y32A peptide
T1 peptide: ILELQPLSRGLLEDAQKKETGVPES
The experiment in a line: ELISA on alanine-scanning peptides, normalised to the first peptide of the series. The method, then: (§1) Binding to the various IL-31 proteins and peptides was assessed by ELISA. IL-31 proteins or peptides (100 ng/well) were immobilized to polystyrene microplates as capture antigen. Wells were blocked with PBS/0.05% Tween 20/1% BSA. Coated wells were incubated for 1 h at room temperature with anti-IL-31 mAbs diluted in PBS/0.05% Tween 20/1% BSA (100 μl/well). After washing, the plates were incubated with a 1/10,000 dilution […] Rabbit Anti-Dog IgG (whole molecule) (Sigma) in PBS/0.05% Tween 20/1% BSA. Plates were washed with PBS/0.05% Tween 20 and developed by the addition of TMB substrate. Development was stopped by the addition of 100 ul ELISA stop Solution (Invitrogen) and absorbance of each well was determined at an optical density (OD) of 450 nm.
(§2) An alanine-scanning peptide library of the region encompassing amino acid residues 18-42 of SEQ ID NO:1 was generated ([…]; SEQ ID NO:79), consisting of 25 peptides, each with a single alanine mutation at a different residue. Binding of the RA4 mAb to each of the peptides was determined by ELISA, as detailed above.
(In an ELISA, binding on a coated surface is turned into a signal by an enzyme label.)

The target in test [2] is T2, canine IL-31 alanine-scanning peptide (residues 18-42 of SEQ ID NO:1) P40A (canine).
T2 construct: See note of m18; also called P40A peptide
T2 peptide: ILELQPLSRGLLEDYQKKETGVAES
Described as above. The method, then: as §1, §2

Test [3] has as its target T3, canine IL-31 alanine-scanning peptide (residues 18-42 of SEQ ID NO:1) V39A (canine).
T3 construct: See note of m18; also called V39A peptide
T3 peptide: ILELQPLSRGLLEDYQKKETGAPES
Described as above. How it is done: as §1, §2

Test [4] deals with T4, canine IL-31 alanine-scanning peptide (residues 18-42 of SEQ ID NO:1) L29A (canine).
T4 construct: also called L29A peptide
T4 peptide: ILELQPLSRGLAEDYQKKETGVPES
Described as above. How it is done: as §1, §2

The target of test [5] is T5, canine IL-31 alanine-scanning peptide (residues 18-42 of SEQ ID NO:1) Q33A (canine).
T5 construct: See note of m18; also called Q33A peptide
T5 peptide: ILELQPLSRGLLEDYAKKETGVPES
The description is as above. The method, then:
as §1, §2

Test [6] has as its target T6, canine IL-31 alanine-scanning peptide (residues 18-42 of SEQ ID NO:1) S42A (canine).
T6 construct: See note of m18; also called S42A peptide
T6 peptide: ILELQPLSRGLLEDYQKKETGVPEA
The test is described as above. The method, then: as §1, §2

Test [7] deals with T7, canine IL-31 alanine-scanning peptide (residues 18-42 of SEQ ID NO:1) K35A (canine).
T7 construct: See note of m18; also called K35A peptide
T7 peptide: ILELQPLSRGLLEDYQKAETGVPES
Described as above. The method, then:
as §1, §2

In test [8] the target is T8, Canine IL-31_4xMUT_combo (SEQ ID NO: 74) (canine).
T8 construct: See note of m25; the entry already carries the substitutions, the leader and the His tag; also called all 4 residues (L29, Y32, Q33, and P40) substituted for alanine in combination
T8 chain: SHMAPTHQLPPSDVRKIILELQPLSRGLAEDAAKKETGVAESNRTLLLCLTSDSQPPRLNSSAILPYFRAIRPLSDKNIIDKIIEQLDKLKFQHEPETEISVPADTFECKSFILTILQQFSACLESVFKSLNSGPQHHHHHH
The experiment in a line: ELISA, protein coated (100 ng/well). The method, then: as §1
Confirmation of the unique epitope targeted by RA4 mAb was performed by assessing the binding of RA4 mAb to full length canine IL-31 proteins that contained each of the 4 key residues identified above, substituted for alanine, and a version with all 4 residues substituted for alanine in combination. […] Binding of RA4 mAb and M14 mAb to each of the proteins was determined by ELISA, as detailed above. […] When all 4 residues (L29, Y32, Q33, and P40) were substituted for alanine in combination, no binding to canine IL-31 was detected. […]

Test [9] addresses T9, Recombinant canine IL-31 (ProSpec-Tany); amino acid residues 24-159 of Accession no. NP_001159386; SEQ ID … (canine).
T9 chain: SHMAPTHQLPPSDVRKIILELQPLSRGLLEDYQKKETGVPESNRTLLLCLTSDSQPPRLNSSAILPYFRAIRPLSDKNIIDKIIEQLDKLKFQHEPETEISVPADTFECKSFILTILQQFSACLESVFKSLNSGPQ
Briefly: cell-based or functional assay.

The target in a further test is T10, human IL-31 (human, UniProt Q6EBC2 24-164).
T10 construct: also called hIL-31
T10 sequence (looked up): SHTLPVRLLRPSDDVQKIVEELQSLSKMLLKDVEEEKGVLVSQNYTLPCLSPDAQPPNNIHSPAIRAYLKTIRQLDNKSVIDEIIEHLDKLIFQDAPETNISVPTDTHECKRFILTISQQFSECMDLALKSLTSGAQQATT
The experiment in a line: ELISA, antigen coated.

Test [10] concerns the target T9, Recombinant canine IL-31 (ProSpec-Tany; …). Briefly: hybridoma screen, microarray ELISA format.

B1: chimeric monoclonal antibody RA4 (chRA4) (antibody, V domains shown)
VH: QIQLVQSGPELKKPGETVKISCKASGYTFTDYSMHWVKQAPGKGLRWMGWINTETGKTIHAEDFKGRVAFSLETSASTAYLQINNLKNEDTATYFCASGRPDYWGQGTTLTVSS
VL: DIVLSQSPASLAVSLGQRATISCRASESVEYYGTSLMQWYQQKPGQPPKLLIYAASGVESGVPARFSGSGSGTDFSLIIHPVEEDDIAMYFCQQSRKVPYTFGGGTKLEIKR
notes: also called chimeric RA4; chimeric RA4.D2 antibody
Regarding B1, the “binding as a percentage of binding to the first peptide in the series” value in test [1] is below 15%; in test [2], below 15%; in test [3] it was below 50%; in test [4] it was below 15%; in test [5], below 15%; in test [6], below 50%. For the same molecule, the “binding as a percentage of binding to the first peptide in the series” value in test [7] is below 50%. Also, the binding result (in test [8]; in the test with human IL-31) was “no binding” in each case. The “inhibition of canine IL-31-induced STAT-3 phosphorylation in canine DH82 cells (IC50)” value in [9] stood at 1.5 µg/mL.

B2: murine monoclonal antibody RA4.D2 (antibody, V domains shown)
VH: QIQLVQSGPELKKPGETVKISCKASGYTFTDYSMHWVKQAPGKGLRWMGWINTETGKTIHAEDFKGRVAFSLETSASTAYLQINNLKNEDTATYFCASGRPDYWGQGTTLTVSS
VL: DIVLSQSPASLAVSLGQRATISCRASESVEYYGTSLMQWYQQKPGQPPKLLIYAASGVESGVPARFSGSGSGTDFSLIIHPVEEDDIAMYFCQQSRKVPYTFGGGTKLEIKR
notes: Mouse hybridoma antibody with a kappa light chain; also called murine RA4
With B2, in test [10], the binding result is on record as “binds”.
